This assay deals with 3 × LPG (truncated derivative of linker-protein G with three linker sequence repeats) (Streptococcus strain G148). Description: QCM-D; 3 × LPG (3.27–654 nM) adsorbed on SiO2-coated sensor, free sites blocked with 1 mg/mL BSA, trastuzumab injected at 1 µg/mL; 1 × PBS pH 7.4, 22 °C, flow 150 µL/min; mass from the Voigt viscoelastic model.

Regarding “trastuzumab (humanized anti-HER2 monoclonal antibody)”, the mass deposited for bound trastuzumab came to 1020 ng/cm^2.
